# B1: Saxatilin (protein)
# chain: EAGEECDCGAPANPCCDAATCKLRPGAQCAEGLCCDQCRFMKEGTICRMARGDDMDDYCNGISAGCPRNPFHA
# B2: Recombinant Saxatilin: Saxatilin expressed in Pichia pastoris transformed with pPSAX, obtained in Example 6 (protein)
# chain: B1 chain
# Columns and labels:
# [1] = system: human platelet rich plasma (PRP); assay type: cell-based; conditions: method of Example 1 (collagen-induced, human PRP); read-out: IC50 determined by platelet aggregation inhibition assay
# Method: To isolate Saxatilin from the venom of Agkistrodon saxatilis emelianov, 302.4 mg of crude venom from the snake was applied to a SEPHADEX™ G-75 gel filtration column (1.8×100 cm) equilibrated with PBS buffer, and fractionated at a flow rate of 20 ml/h. The activity of Saxatilin was determined by the platelet aggregation inhibition assay: The concentrated human platelet rich plasma (PRP) obtained from 400 ml of human blood was diluted to the concentration of 300,000 platelets/μl. The diluted PRP (450 μl) was mixed with 50 μl of PBS and then incubated in the aggregometer CHROMO-LOGT™, USA) at 37° C. for 3 minutes. After collagen ([…]) was added into the PRP solution to induce the platelet aggregation, the difference of light transmittance was measured.
# Recombinant Saxatilin obtained in Example 6 was assayed by the platelet aggregation inhibition method described in Example 1, and compared with those of wild-type Saxatilin obtained in Example 1 and GRGDSP (SEQ ID NO:7) (see: Table 1), respectively.
# [2] = system: αVβ3 integrin on HUVEC surface; experiment: HUVEC adhesion to Vitronectin-coated plate; assay type: cell-based, human; conditions: pre-incubation of bFGF-stimulated HUVEC 20 min; FIG. 4a
# Method: To confirm that inhibition of HUVEC proliferation by Saxatilin is due to the direct interaction of Saxatilin with Vitronectin receptor, αVβ3 integrin, localized on the HUVEC surface, it was investigated whether Saxatilin blocks HUVEC from binding to Vitronectin-coated 96-well plate.
# (§1) 96-well plate was coated with recombinant Saxatilin obtained in Example 6 (1 μg/well) as well as Vitronectin (0.5 μg/well) which were dissolved in phosphate buffered saline (PBS) for 16 hr at 4° C. After washing the plate, 10 mg/ml of heat-treated bovine serum albumin (BSA) was added for blocking of uncharged protein binding site. The plate was incubated for 1 hr and washed with PBS. HUVEC was trypsinized and washed with PBS three times, and then, resuspended in serum-free DMEM. 5×10^4 cells were mixed with anti-αVβ3 monoclonal antibody, a synthesized RGD peptide, GRGDSP (SEQ ID NO:7), a synthesized RGE peptide, GRGETP (SEQ ID NO:8) and Saxatilin, and pre-incubated for 20 min at 37° C. Then, the mixture was added to the wells of both Saxatilin and Vitronectin-coated 96-well plate. After 1 hr of incubation at 37° C. under an environment of 5% CO2, the plate was washed with PBS to remove unbound cells, and bound cells were fixed and stained with Coomassie blue. Optical absorbences of the wells were measured at 540 nm to count relative cell numbers (see: FIGS. 4a and 4b).
# [3] = system: αVβ3 integrin on HUVEC surface; experiment: HUVEC adhesion to Saxatilin-coated plate; assay type: cell-based, human; conditions: pre-incubation of bFGF-stimulated HUVEC 20 min; FIG. 4b
# Method: as §1
# [4] = system: human platelet rich plasma; experiment: Platelet aggregation inhibition assay, ADP-induced (Example 5); assay type: cell-based
# Method: After ADP was added into each of the PRP solutions to induce the platelet aggregation, the turbidity was measured, respectively (see: FIG. 1).
# ICR mice = experiment: Collagen/epinephrine-induced thrombosis in mice, viability; assay type: in vivo, mouse; conditions: 10 min before collagen + epinephrine
# Method: When a mixture of collagen and epinephrine was injected into mice intravenously, thrombus was formed in pulmonary artery, which led to paralysis, dilation of pupil, laboring breath and convulsions, and finally 70% of the mice died not more than 5 min. Thus, it was investigated whether the intravenous injection of recombinant Saxatilin could reduce the thrombosis symptoms.
# At 10 minutes after Saxatilin (0, 0.1, 0.25 and 0.5 mg/kg dissolved in 0.1 ml PBS, respectively) was intravenously injected into the tails of ICR mice, the mixture of collagen and epinephrine (120 μg collagen and 12 μg epinephrine in 0.1 ml PBS) was also injected into the tails of ICR mice, intravenously, and the viability was determined (see: Table 2).
# HUVEC = experiment: bFGF-stimulated HUVEC proliferation inhibition assay; assay type: cell-based, human; conditions: 0, 20, 30 μg/ml; 1 ng/ml bFGF; 72 hr; FIG. 3
# Method: To investigate whether recombinant Saxatilin containing RGD sequence inhibits the endothelial cell proliferation, proliferation inhibition assay was performed using HUVEC.
# HUVEC was cultured on 24-well microplate coated with gelatin at 37° C. for 24 hr under an environment of 5% CO2. […] Then, cells were further incubated for 20 min and treated with 1 ng/ml of bFGF solution. After incubation of 72 hr, cells were trypsinized and the cell numbers were counted to determine cell viability (see: FIG. 3).
# [5] = system: chick chorioallantoic membrane (CAM); experiment: Chick chorioallantoic membrane (CAM) assay, bFGF-stimulated angiogenesis; assay type: in vivo; conditions: 5 μg applied to CAM, observed at 72 hr; FIG. 5b
# Method: Chick chorioallantoic membrane (CAM) assay, a simulated in vivo model, was carried out to examine the effect of Saxatilin on bFGF-stimulated angiogenesis. A part of the rind of fertilized 3-day-old egg was broken carefully, and sealed with transparent tape, and incubated for 10 days at 37° C. under an environment of 60% humidity. Then, bFGF was applied to the chick chorioallantoic membrane (CAM) of individual embryo (6 ng/embryo) to induce angiogenesis. After further incubation of 24 hr, PBS as a negative control and 5 μg recombinant Saxatilin obtained from Example 6 were applied to CAM, respectively. At 72 hr after treatment, the blood vessels of embryos were observed (see: FIGS. 5a and 5b).
# [6] = system: Lewis lung carcinoma cells; experiment: Metastatic Lewis lung carcinoma growth in mice; assay type: in vivo, C57BL/6 mice
# Method: 1×10^6 Lewis lung carcinoma cells (purchased from […], Rockville, Md., USA) were injected into the tails of 8-week-old male C57BL/6 mice (Charles river, Japan), intravenously. At 4 day after injection, recombinant Saxatilin obtained from Example 6 was periodically applied to mice by intravenous injection in an amount of 1.25 mg/kg/day (once per day). After 4-weeks of periodical treatment, tumor-bearing mice were sacrificed, and the number of tumor colony was counted by using stereomicroscope.
# Furthermore, to observe the direct effect of Saxatilin on the metastatic lung carcinoma, histochemical study was carried out. Tumor-bearing lung tissue was fixed in paraffin in accordance with the conventionally known method followed by treatment of Bouin's solution for 4 hours. The tissue section of 4 μm thickness was infiltrated with trypsin at 37° C. for 10 min and washed with PBS. The tissue section was stained with hematoxylin and eosin, and then mounted (see: FIGS. 6a, 6b and 6c). FIG. 6a is a photograph showing lung tissue without Lewis lung carcinoma cell; FIG. 6b, lung tissue implanted with Lewis lung carcinoma cell and then treated with PBS; and, FIG. 6c, lung tissue implanted with Lewis lung carcinoma cell and then treated with Saxatilin. […] As illustrated as above, it was assumed that the suppression of metastatic tumor growth in Saxatilin-treated mice was due to blockade of Saxatilin against angiogenesis, which was essential for the secondary tumor growth.
# male C57BL/6 mouse = experiment: Acute toxicity (LD50); assay type: in vivo; conditions: subcutaneous injection, 7 days
# Method: To examine the acute toxicity of Saxatilin as anti-platelet aggregation agent and anti-tumor agent, Saxatilin was injected into male C57BL/6 mouse subcutaneously and the dead were counted to determine LD50 for 7 days.
# BCE cell = experiment: bFGF-stimulated BCE cell proliferation; assay type: cell-based
# [7] = 1.25 mg/kg/day i.v. from day 4, 4 weeks, C57BL/6 mice
molecule,measurement,setting,value
"N=C(N)NCCC[C@H](NC(=O)CN)C(=O)NCC(=O)N[C@@H](CC(=O)O)C(=O)N[C@@H](CO)C(=O)N1CCC[C@H]1C(=O)O [GRGDSP, reference compound]",IC50,[1],270 µM
same,HUVEC adhering to Vitronectin,[2],prevented HUVEC from adhering
same,HUVEC adhering to Saxatilin,[3],prevented HUVEC from adhering
B1,IC50,"[4]; ADP-induced aggregation, human PRP, 25° C.",179 nM
same,inhibitory effect relative to GRGDSP peptide,"[4]; ADP-induced platelet aggregation, more potent than GRGDSP",1000 times
same,Mortal group/Total group,ICR mice; 0.1 mg/kg i.v.,16/20
same,Viability,ICR mice; 0.1 mg/kg i.v.,20
same,Mortal group/Total group,ICR mice; 0.25 mg/kg i.v.,11/20
same,Viability,ICR mice; 0.25 mg/kg i.v.,55
same,Mortal group/Total group,ICR mice; 0.5 mg/kg i.v.,3/20
same,Viability,ICR mice; 0.5 mg/kg i.v.,85
same,effect on HUVEC growth,HUVEC,inhibited the HUVEC growth in a dose-dependent manner
same,HUVEC adhering to Vitronectin,[2],prevented HUVEC from adhering
same,HUVEC adhering to Saxatilin,[3],prevented HUVEC from adhering
same,effect on bFGF-stimulated angiogenesis (CAM),[5],had an inhibitory effect on angiogenesis
same,Average colony number,[6]; [7],0.7 ± 0.6
same,Inhibition rate (%),[6]; [7],95%
same,effect on metastatic tumor growth,"[6]; 1.25 mg/kg/day i.v., 4 weeks",potently inhibited the metastatic tumor growth
same,"metastatic tumor growth in lung tissue, histochemical study","[6]; hematoxylin and eosin stained lung sections, FIG. 6c",not observed
same,toxicity on tested mice,"[6]; tumor-bearing mice, 1.25 mg/kg/day i.v.",no toxicity
same,LD50,male C57BL/6 mouse,about 1100 mg/kg
same,bFGF-stimulated BCE cell proliferation,BCE cell,potently inhibited
B2,IC50,[1],0.139 µM

# Source: US7033788B2, “Protein derived from Agkistrodon saxatilis emelianov and process preparing the same” (priority 2002, dated 2006)
